Patent US20250034275A1 (CHIA TAI TIANQING PHARMACEUTICAL GROUP, published 2025)
Read-outs that look alike come from different tables or passages of the source.

Assays:
[1] = molecular target: human Trop-2 (on the surface of human cell lines) (human) (UniProt P09758); experiment: flow cytometry, PC-3 cells, isotype control at 3 ug/mL (background)
[2] = molecular target: human Trop-2 (on the surface of human cell lines) (human) (UniProt P09758); experiment: flow cytometry, HCC38 cells, isotype control at 3 ug/mL (background)
[3] = molecular target: human Trop-2 (on the surface of human cell lines) (human) (UniProt P09758); experiment: flow cytometry, HUVEC cells, isotype control at 3 ug/mL (background)
[4] = molecular target: human Trop-2 (on the surface of human cell lines) (human) (UniProt P09758); experiment: flow cytometry, Capan-1 cells, isotype control at 3 ug/mL (background)
[5] = molecular target: human Trop-2 (on the surface of human cell lines) (human) (UniProt P09758); experiment: flow cytometry, HCC1806 cells, isotype control at 3 ug/mL (background)
[6] = molecular target: human Trop-2 (on the surface of human cell lines) (human) (UniProt P09758); experiment: flow cytometry, OVCAR-3 cells, isotype control at 3 ug/mL (background)
[7] = molecular target: human Trop-2 (on the surface of human cell lines) (human) (UniProt P09758); experiment: flow cytometry, NCI-H322 cells, isotype control at 3 ug/mL (background)
[8] = molecular target: human Trop-2 (on the surface of human cell lines) (human) (UniProt P09758); experiment: cell-based or functional assay
[9] = molecular target: human Trop-2 (on the surface of human cell lines) (human) (UniProt P09758); experiment: flow cytometry, HCC38 cells
[10] = molecular target: human Trop-2 (on the surface of human cell lines) (human) (UniProt P09758); experiment: flow cytometry, HCC38 cells; remark: listed apart in the source
[11] = molecular target: human Trop-2 (on the surface of human cell lines) (human) (UniProt P09758); experiment: flow cytometry, HCC38 cells; remark: listed apart in the source
[12] = molecular target: human Trop-2 (on the surface of human cell lines) (human) (UniProt P09758); experiment: flow cytometry, HCC1806 cells
[13] = molecular target: human Trop-2 (on the surface of human cell lines) (human) (UniProt P09758); experiment: flow cytometry, HCC1806 cells; remark: listed apart in the source
[14] = molecular target: human Trop-2 (on the surface of human cell lines) (human) (UniProt P09758); experiment: flow cytometry, OVCAR-3 cells
[15] = molecular target: human Trop-2 (on the surface of human cell lines) (human) (UniProt P09758); experiment: flow cytometry, HCC1806 cells; remark: listed apart in the source
[16] = molecular target: human Trop-2 (on the surface of human cell lines) (human) (UniProt P09758); experiment: flow cytometry, OVCAR-3 cells; remark: listed apart in the source
[17] = molecular target: Macaque Trop-2-His (macaque); experiment: ELISA, plate-coated macaque Trop-2-His
[18] = molecular target: Macaque Trop-2-His (macaque); experiment: ELISA, plate-coated macaque Trop-2-His; remark: listed apart in the source
[19] = molecular target: Macaque Trop-2-His (macaque); experiment: ELISA, plate-coated macaque Trop-2-His; remark: listed apart in the source
[20] = molecular target: human Trop-2 (on the surface of human cell lines) (human) (UniProt P09758); experiment: flow cytometry, PC-3 cells, antibody at 3 ug/mL
[21] = molecular target: T1, human Trop-2-His (human, UniProt P09758 27-274, limits assumed); experiment: ELISA, plate-coated human Trop-2-His
T1 construct: by analogy with the macaque construct it is probably the extracellular domain with a His tag; also called Trop-2-His protein
T1 sequence: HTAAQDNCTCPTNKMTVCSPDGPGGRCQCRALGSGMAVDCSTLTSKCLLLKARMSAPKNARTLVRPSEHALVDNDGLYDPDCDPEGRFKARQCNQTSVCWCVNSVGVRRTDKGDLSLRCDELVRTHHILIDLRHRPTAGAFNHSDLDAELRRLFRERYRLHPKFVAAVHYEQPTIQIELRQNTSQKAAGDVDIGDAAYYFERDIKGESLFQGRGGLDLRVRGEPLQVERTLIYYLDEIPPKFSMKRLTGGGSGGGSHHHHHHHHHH

[22] = molecular target: human Trop-2 (on the surface of human cell lines) (human) (UniProt P09758); experiment: flow cytometry, HCC38 cells, antibody at 3 ug/mL
[23] = molecular target: human Trop-2 (on the surface of human cell lines) (human) (UniProt P09758); experiment: flow cytometry, HUVEC cells, antibody at 3 ug/mL
[24] = molecular target: human Trop-2 (on the surface of human cell lines) (human) (UniProt P09758); experiment: flow cytometry, Capan-1 cells, antibody at 3 ug/mL
[25] = molecular target: human Trop-2 (on the surface of human cell lines) (human) (UniProt P09758); experiment: flow cytometry, HCC1806 cells, antibody at 3 ug/mL
[26] = molecular target: human Trop-2 (on the surface of human cell lines) (human) (UniProt P09758); experiment: flow cytometry, OVCAR-3 cells, antibody at 3 ug/mL
[27] = molecular target: human Trop-2 (on the surface of human cell lines) (human) (UniProt P09758); experiment: flow cytometry, NCI-H322 cells, antibody at 3 ug/mL
[28] = molecular target: T1, human Trop-2-His; experiment: SPR (Biacore 8K), antibody captured, Trop-2-His as analyte
Procedure, shortened: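 Antibody captured on anti-human IgG-coated CM5 chip; human Trop-2-His flowed as analyte with real-time association/dissociation recording, 3M MgCl₂ regeneration. Double-subtracted curves fit to Langmuir 1:1 model giving ka, kd and KD.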

## human IgG1 control antibody
[1]
  MFI: 8920
[2]
  MFI: 32400
[3]
  MFI: 20500
[4]
  MFI: 65600
[5]
  MFI: 16200
[6]
  MFI: 11800
[7]
  MFI: 21300

B1: TINA (antibody, INN chains, looked up, V domains shown)
VH: QVQLVQSGAEVKKPGASVKVSCKASGYTFTTAGMQWVRQAPGQGLEWMGWINTHSGVPKYAEDFKGRVTISADTSTSTAYLQLSSLKSEDTAVYYCARSGFGSSYWYFDVWGQGTLVTVSS
VL: DIQMTQSPSSLSASVGDRVTITCKASQDVSTAVAWYQQKPGKAPKLLIYSASYRYTGVPSRFSGSGSGTDFTLTISSLQPEDFAVYYCQQHYITPLTFGQGTKLEIK
[8]
  ADCC reporter (Jurkat-CD16a v158-NFAT-luciferase), target cell H322, EC50: 0.27 nM
  ADCC reporter (Jurkat-CD16a v158-NFAT-luciferase), target cell HCC1806, EC50: 0.46 nM
  ADCC, PBMC killing (LDH), H322, EC50: 0.02 nM
  ADCC, PBMC killing (LDH), H322, Maximum killing (%): 49.8%
  ADCC, PBMC killing (LDH), HCC1806, EC50: 0.07 nM
  ADCC, PBMC killing (LDH), HCC1806, Maximum killing (%): 38.5%
[9]
  EC50: 1.21 nM
[10]
  EC50: 0.79 nM
[11]
  EC50: 1.04 nM
[12]
  EC50: 1.44 nM
[13]
  EC50: 0.84 nM
[14]
  EC50: 1.29 nM
[15]
  EC50: 0.73 nM
[16]
  EC50: 1.28 nM
[17]
  EC50: 0.106 nM
[18]
  EC50: 0.063 nM
[19]
  EC50: 0.046 nM
[20]
  MFI: 68500
  Positive rate (%): 69.1%
  Ratio (MFI of TINA to MFI of the IgG1 control): 7.7
[21]
  EC50: 0.083 nM
[21]; record 2
  EC50: 0.166 nM
[22]
  MFI: 3.85e+06
  Positive rate (%): 99.3%
  Ratio (MFI of TINA to MFI of the IgG1 control): 119
[23]
  MFI: 125000
  Positive rate (%): 22.9%
  Ratio (MFI of TINA to MFI of the IgG1 control): 6.1
[24]
  MFI: 1.21e+06
  Positive rate (%): 98.4%
  Ratio (MFI of TINA to MFI of the IgG1 control): 18.4
[25]
  MFI: 1.66e+06
  Positive rate (%): 99.9%
  Ratio (MFI of TINA to MFI of the IgG1 control): 102
[26]
  MFI: 182000
  Positive rate (%): 99%
  Ratio (MFI of TINA to MFI of the IgG1 control): 15.4
[27]
  MFI: 2.83e+06
  Positive rate (%): 100%
  Ratio (MFI of TINA to MFI of the IgG1 control): 133
[28]
  Kd: 12.5 nM
  koff: 0.00239 s⁻¹
  kon: 191000 M⁻¹ s⁻¹
